Experiment [1] addresses T1, RSV F glycoprotein (NUF4) (respiratory syncytial virus).
T1 chain 1: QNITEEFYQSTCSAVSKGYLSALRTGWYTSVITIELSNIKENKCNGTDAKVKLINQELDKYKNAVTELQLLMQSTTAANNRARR
T1 chain 2: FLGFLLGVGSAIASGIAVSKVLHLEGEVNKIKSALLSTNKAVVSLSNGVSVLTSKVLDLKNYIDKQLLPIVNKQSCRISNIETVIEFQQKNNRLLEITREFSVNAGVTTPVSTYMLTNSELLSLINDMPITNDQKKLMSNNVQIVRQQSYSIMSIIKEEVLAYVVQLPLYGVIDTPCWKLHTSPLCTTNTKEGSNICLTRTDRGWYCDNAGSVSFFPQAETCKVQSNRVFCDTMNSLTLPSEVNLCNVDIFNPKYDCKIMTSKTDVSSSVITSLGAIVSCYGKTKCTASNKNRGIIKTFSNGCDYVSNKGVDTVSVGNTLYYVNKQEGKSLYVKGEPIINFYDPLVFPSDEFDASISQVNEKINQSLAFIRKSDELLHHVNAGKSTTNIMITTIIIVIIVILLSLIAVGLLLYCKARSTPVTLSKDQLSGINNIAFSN
Nature of the experiment: SPR (BIAcore), mAb vs NUF4 (2:1).

Experiment [2] concerns the target T2, F protein of RSV (Long strain) (RSV (Long strain), UniProt P12568 26-574). Description: cell-based or functional assay.
Experiment [3] has as its target T3, recombinant C-terminally truncated RSV (A2 strain) F protein (RSV (A2 strain), UniProt P03420 26-524).
T3 construct: extracellular domain; also called truncated F protein; extracellular domain of the F protein from RSV A2
Description: SPR (BIAcore). Background: SPR reads the build-up and loss of mass on a sensor chip optically.
Target sequence in this assay (P03420 137-524): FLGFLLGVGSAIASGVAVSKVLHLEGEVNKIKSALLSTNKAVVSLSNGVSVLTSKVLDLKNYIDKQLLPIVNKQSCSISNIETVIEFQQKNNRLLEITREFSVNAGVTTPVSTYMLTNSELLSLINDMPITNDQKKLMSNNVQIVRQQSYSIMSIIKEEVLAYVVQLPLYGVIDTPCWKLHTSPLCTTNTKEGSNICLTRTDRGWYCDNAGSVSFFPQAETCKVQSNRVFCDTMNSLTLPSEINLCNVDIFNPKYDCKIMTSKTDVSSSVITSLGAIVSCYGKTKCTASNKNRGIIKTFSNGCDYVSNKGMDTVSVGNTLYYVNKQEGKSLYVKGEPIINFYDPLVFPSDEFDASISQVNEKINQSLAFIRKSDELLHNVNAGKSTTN

Experiment [4] deals with T3, recombinant C-terminally truncated RSV …. Nature of the experiment: SPR (BIAcore), IgG over immobilised F.
The target of the next experiment is Bac-F (respiratory syncytial virus). Nature of the experiment: SPR (BIAcore), mAb vs Bac-F (1:1).
In experiment [5] the target is T2, F protein of RSV (Long strain). Description: cell-based or functional assay. The source holds these as a separate data set.
Experiment [6] deals with T1, RSV F glycoprotein (NUF4). Nature of the experiment: SPR (BIAcore), mAb vs NUF4 (1:1).
In experiment [7] the target is T3, recombinant C-terminally truncated RSV …. Nature of the experiment: SPR (BIAcore), IgG over immobilised F. This is another data set of the same source.
Target sequence in this assay (P03420 137-524): as above
Experiment [8] addresses T4, human FcRn (human).
T4 construct: also called recombinant human FcRn
Nature of the experiment: SPR (BIAcore 3000), FcRn over immobilised IgG, pH 6.0, one-site fit.
Description: (§1) Human and Cynomolgus Monkey FcRn were buffer-exchanged against 50 mM Phosphate Buffered Saline (PBS) pH 6.0 or 7.4 containing 0.05% Tween 20. Dilutions were made in the same buffers. […] FcRn was also flowed over an uncoated cell and the sensorgrams from these blank runs subtracted from those obtained with IgG-coupled chips. Runs were analyzed using the software BIAevaluation 3.1 (Pharmacia). Dissociation constants (Kds) were determined by fitting the binding isotherms to a one-site binding model using GraphPad Prism (GraphPad Software, Inc., CA). Errors were estimated as the mean standard deviation for at least 2 independent determinations.

Another experiment deals with T5, Cynomolgus Monkey FcRn (Cynomolgus Monkey, UniProt Q8SPV9 24-290; Q8SPW0 21-119).
T5 construct: also called Cynomolgus FcRn
T5 sequence (Q8SPV9 24-290 limits assumed, chain 1 of 2): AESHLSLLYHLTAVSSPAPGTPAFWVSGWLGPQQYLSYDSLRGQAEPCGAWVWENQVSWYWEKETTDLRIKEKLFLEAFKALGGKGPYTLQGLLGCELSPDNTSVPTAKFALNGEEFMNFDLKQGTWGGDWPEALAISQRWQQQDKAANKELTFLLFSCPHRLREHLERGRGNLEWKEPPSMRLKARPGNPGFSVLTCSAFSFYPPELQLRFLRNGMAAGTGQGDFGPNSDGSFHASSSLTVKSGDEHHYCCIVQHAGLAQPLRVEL
T5 sequence (Q8SPW0 21-119 limits assumed, chain 2 of 2): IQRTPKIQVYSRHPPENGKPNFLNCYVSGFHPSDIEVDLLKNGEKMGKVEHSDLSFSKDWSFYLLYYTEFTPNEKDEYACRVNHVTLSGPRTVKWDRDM
The description is as above.

Experiment [9] has as its target T2, F protein of RSV (Long strain). Description: cell-based or functional assay. This is another data set of the same source.
Experiment [10] addresses T1, RSV F glycoprotein (NUF4). Description: ITC, NUF4 titrated into antibody, 35 C. Background: In ITC the heat of successive injections is recorded.
Description: The binding thermodynamics of the antibodies were determined from ITC measurements using a Microcal, Inc. VP Titration Calorimeter. The VP titration calorimeter consists of a matched pair of sample and reference vessels (1.409 ml) enclosed in an adiabatic enclosure and a rotating stirrer-syringe for titrating ligand solutions into the sample vessel. The ITC measurements were performed at 25° C. and 35° C. The sample vessel contained the antibody in the phosphate buffer while the reference vessel contained just the buffer solution. The phosphate buffer solution was saline 67 mM PO₄ at pH 7.4 from HyClone, Inc. Five or ten μl aliquots of the 0.05 to 0.1 mM NUF4 solution were titrated 3 to 4 minutes apart into the antibody sample solution until the binding was saturated as evident by the lack of a heat exchange signal. […] This was attributed to a heat of dilution of the NUF4 titrant and was subtracted from the titrant heats obtained during the titration prior to analysis of the data.
A non-linear, least square minimization software program from Microcal, Inc., Origin 5.0, was used to fit the incremental heat of the ith titration (ΔQ (i)) of the total heat, Qₜ, to the total titrant concentration, Xₜ, according to the following equations (I),
The target in experiment [11] is T3, recombinant C-terminally truncated RSV …. Description: SPR (BIAcore 3000), F immobilised at low density, 1:1 Langmuir fit.
Target sequence in this assay (P03420 137-524): as the sequence (P03420 137-524) above
Description: Purified F protein was covalently coupled to an N-hydroxysuccinimide-N-ethyl-N′-[3-diethylaminopropyl]-carbodiimide (EDC/NHS) activated CM5 sensor chip at a low protein density according to the manufacturer's protocol; unreacted active ester groups were blocked with 1 M ethanolamine. For reference purposes, a blank surface, containing no antigen, was prepared under identical immobilization conditions.
For kinetic measurements, a serial 2-fold dilution series of each mAb from 100 nm-0.2 nm, made in instrument buffer (HBS/Tween-20, BIAcore, Inc.), was injected over the F-protein and reference cell surfaces, which are connected in series. In each analysis, following the dissociation phase, the remaining bound antibody was removed from the sensor chip by passing a brief pulse of 100 mM HCl over the surface. Once an entire data set was collected, the resulting binding curves were globally fitted to a 1:1 Langmuir binding model using BIAevaluation software (BIAcore, Inc., Piscataway, N.J.). This algorithm calculates both the association rate (kₒₙ) and the dissociation rate (koff), from which the apparent equilibrium binding constant, Kd, for each antibody was deduced as the ratio of the two rate constants, koff/kₒₙ.
In experiment [12] the target is T2, F protein of RSV (Long strain). Description: cell-based or functional assay. This is another data set of the same source.
Experiment [13] shares this target. Description: cell-based or functional assay. This is another data set of the same source.
Experiment [14] deals with T4, human FcRn. Description: SPR (BIAcore 3000), FcRn over immobilised IgG1, pH 6.0, Scatchard.
Description: (§2) IgG1 variants was monitored by surface plasmon resonance detection using a BIAcore 3000 instrument (Pharmacia Biosensor, Uppsala, Sweden). […] The protein concentrations ranged from 3-5 μg/ml in 10 mM sodium acetate, pH 5.0. The activation period was set for 7 minutes at a flow rate of 10 μl/min and the immobilization period was set to between 10 and 20 minutes at a flow rate of 10 μl/min. […] Human and murine FcRn were buffer exchanged against 50 mM PBS buffer pH 6.0 containing 0.05% Tween 20. Dilutions were made in the same buffer. All binding experiments were performed at 25° C. with concentrations ranging from 120 to 1 μg/ml at a flow rate of 5 to 10 μl/min; data were collected for 25 to 50 minutes and three 1-minute pulses of PBS buffer pH 7.2 were used to regenerate the surfaces. FcRn was also flowed over an uncoated cell and the sensorgrams from these blank runs subtracted from those obtained with IgG1-coupled chips. Runs were analyzed using the software BIAevaluation 3.1 (Pharmacia). Association constants (KAs) were determined from Scatchard analysis by measuring the concentration of free reactants and complex at equilibrium after correction for nonspecific binding.
The target of experiment [15] is T6, murine FcRn (mouse, UniProt P01887 21-119).
T6 construct: also called mouse FcRn; muFcRn
T6 sequence: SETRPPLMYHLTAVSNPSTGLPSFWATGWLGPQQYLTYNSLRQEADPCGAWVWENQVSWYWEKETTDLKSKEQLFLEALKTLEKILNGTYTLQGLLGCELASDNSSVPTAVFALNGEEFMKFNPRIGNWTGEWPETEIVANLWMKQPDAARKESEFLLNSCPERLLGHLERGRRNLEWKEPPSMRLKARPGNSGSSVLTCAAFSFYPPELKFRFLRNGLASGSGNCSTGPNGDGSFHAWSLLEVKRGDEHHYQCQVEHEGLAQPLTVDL
T6 sequence (b2m): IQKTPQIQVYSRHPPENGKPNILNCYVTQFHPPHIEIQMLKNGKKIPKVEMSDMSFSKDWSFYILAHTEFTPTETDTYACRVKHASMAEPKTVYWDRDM
Described as above.
Description: as §2

Experiment [16] has as its target T6, murine FcRn. Nature of the experiment: SPR (BIAcore), murine FcRn over immobilised IgG1, Scatchard.
Description: Runs were analyzed using the software BIAevaluation 3.1 (Pharmacia). Association constants (KAs) were determined from Scatchard analysis by measuring the concentration of free reactants and complex at equilibrium after correction for nonspecific binding. […] The concentration of free analyte (human or murine FcRn) is equal to the bulk analyte concentration since analyte is constantly replenished during sample injection. The concentration of free ligand on the surface of the sensor chip can be derived from the concentration of the complex and from the total binding capacity of the surface as KA=Req/C(Rₘₐₓ−Req) where C is the free analyte concentration, Req is the steady-state response, and Rₘₐₓ is the total surface binding capacity. Rearranging, the equation reads: Req/C=KA Rₘₐₓ−KA Req.
To estimate apparent KAs, concentrations of FcRn ranging from 120 to 1 μg/ml were used. In all cases, equilibrium (or near-equilibrium) binding levels were reached within 50 minutes. To estimate the increase in RU resulting from the non specific effect of protein on the bulk refractive index, binding of FcRn to an uncoated cell was measured and the sensorgrams from these blank runs subtracted from those obtained with IgG1-coupled chips. The plots were all linear, and apparent KAs were calculated from the relevant slopes. […]

Changes are numbered by the printed parent chain. Names and notes keep the numbering of the source. Values joined by “and” are separate entries in the source; they are usually repeats but may differ in a detail not shown here. Identical values can stand only once. Like-named read-outs stand apart in the source and are kept apart here.

T4 sequence (chain, as listed by the source limits assumed, chain 1 of 2): as the sequence (Q8SPV9 24-290 limits assumed, chain 1 of 2) above, with D39N, Q44E, S99G, G189S, N190S, M217L counted along it
T4 sequence (P61769 21-119 limits assumed, chain 2 of 2): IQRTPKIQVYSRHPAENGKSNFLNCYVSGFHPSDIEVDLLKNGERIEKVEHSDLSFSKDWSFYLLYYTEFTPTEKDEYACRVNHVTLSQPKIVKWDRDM
Description for Cynomolgus Monkey FcRn: as §1

B1: A12a6 IgG (antibody, V domains shown)
VH: QVTLRESGPALVKPTQTLTLTCTFSGFSLSTAGMSVGWIRQPPGKALEWLADIWWDGKKDYNPSLKDRLTISKDTSKNQVVLKVTNMDPADTATYYCARDMIFNFYFDVWGQGTTVTVSS
VL: DIQMTQSPSTLSASVGDRVTITCSASSRVGYMHWYQQKPGKAPKLLIYDTFKLSSGVPSRFSGSGSGTEFTLTISSLQPDDFATYYCFQGSGYPFTFGGGTKVEIKR
As for B1, in [1], binding was characterised by a dissociation constant (Kd) of 1.87 nM, the “fold in parentheses (palivizumab = 1)” value is 167 fold, the koff is 0.000408 s⁻¹ and the kon is 218000 M⁻¹ s⁻¹. In experiment [2], the “Mean IC50 (Control)” value was 0.0354 µg/mL and the “Mean IC50 (Curve)” value is 0.0357 µg/mL. Further, the “fold improvement in koff upon IgG conversion (against its Fab)” value in experiment [3] was determined as 13 fold. In addition, in experiment [4], the Kd was determined as 0.036 nM, the koff was 1.65e-05 s⁻¹ and the association rate constant (kon) stood at 460000 M⁻¹ s⁻¹. Besides, in the experiment with Bac-F, the Kd was found to be 0.04 nM and the “fold in parentheses (palivizumab = 1)” value worked out at 98 fold. In experiment [5], the “Microneutralization IC50, IgG” value is 0.0357 µg/ml and 0.24 nM. In experiment [6], the Kd came out at 0.73 nM, the “fold in parentheses (palivizumab = 1)” value amounted to 12 fold, the koff is 0.000291 s⁻¹ and the kon was 400000 M⁻¹ s⁻¹.

B2: P11d4 IgG (antibody, V domains shown)
VH: B1 VH with A32P, D60H, F105W
VL: B1 VL with A25P, F51M, K52R, S54A
Consider B2, for which, in experiment [1], the Kd is 8.55 nM, the “fold in parentheses (palivizumab = 1)” value was 36 fold, the koff amounted to 0.00313 s⁻¹ and the kon was found to be 366000 M⁻¹ s⁻¹. Besides, in experiment [2], the “Mean IC50 (Control)” value turned out to be 0.0289 µg/mL and the “Mean IC50 (Curve)” value stood at 0.0217 µg/mL. Also, in experiment [4], the Kd was determined as 0.62 nM, the koff was found to be 0.000289 s⁻¹ and the kon worked out at 466000 M⁻¹ s⁻¹. In the experiment with Bac-F, the affinity, expressed as Kd, was 0.62 nM and the “fold in parentheses (palivizumab = 1)” value is 6 fold. Moreover, the “Microneutralization IC50, IgG” value in [5] is 0.0217 µg/ml and 0.14 nM. In [7], the “fold improvement in kon over palivizumab” value turned out to be 4 fold. Moreover, in [6], the Kd was 0.85 nM, the “fold in parentheses (palivizumab = 1)” value worked out at 10 fold, the koff worked out at 0.000766 s⁻¹ and the kon came to 904000 M⁻¹ s⁻¹.

B3: A4B4L1FR-S28R (MEDI-524) (antibody, human IgG1, kappa)
heavy: not shown
light: DIQMTQSPSTLSASVGDRVTITCSASSRVGYMHWYQQKPGKAPKLLIYDTSKLASGVPSRFSGSGSGTEFTLTISSLQPDDFATYYCFQGSGYPFTFGGGTKVEIKRTVAAPSVFIFPPSDEQLKSGTASVVCLLNNFYPREAKVQWKVDNALQSGNSQESVTEQDSKDSTYSLSSTLTLSKADYEKHKVYACEVTHQGLSSPVTKSFNRGEC
In the case of B3, the results for the Kd with human FcRn [8] and in the experiment with Cynomolgus Monkey FcRn were 2250 nM and 1200 nM, respectively. Also, in experiment [9], the “RSV microneutralization, average IC50” value was found to be 0.018 µg/mL.

B4: A4B4 IgG (antibody, V domains shown)
VH: B1 VH with G57D, D60H
VL: B1 VL with K52F, S54D
B4: in experiment [1], the Kd amounted to 2 nM, the “fold in parentheses (palivizumab = 1)” value came out at 156 fold, the koff was 0.000401 s⁻¹ and the kon is 203000 M⁻¹ s⁻¹. For the same molecule, in [2], the “Mean IC50 (Control)” value was determined as 0.0154 µg/mL and the “Mean IC50 (Curve)” value came to 0.0171 µg/mL. Moreover, in experiment [4], the Kd worked out at 0.027 nM, the koff came out at 1.51e-05 s⁻¹ and the kon was 553000 M⁻¹ s⁻¹. Moreover, in [5], the “Microneutralization IC50, IgG” value is 0.104 µg/ml and 0.069 nM. Further, in experiment [10], the Ka worked out at 2.69e+08 M⁻¹, the Kd is roughly 3.7 nM and the ΔHb was determined as 22.2 kcal/mol. Besides, in experiment [7], the “fold improvement in affinity over palivizumab” value came to 125 fold, the “fold improvement in koff over palivizumab” value was found to be 28 fold and the “fold improvement in kon over palivizumab” value was found to be 4 fold. For the same molecule, in experiment [6], the Kd worked out at 0.57 nM, the “fold in parentheses (palivizumab = 1)” value came out at 15 fold, the koff was 0.000282 s⁻¹ and the kon worked out at 496000 M⁻¹ s⁻¹.

B5: palivizumab (IgG) (antibody)
heavy: not shown
light: B3 light with S24K, A25C, S26Q, S27L, R28S, V103L
notes: also called SYNAGIS
For the molecule B5, the Kd amounted to 3.46 nM in [11]; 3.39 nM in [4]; 3.9 nM with Bac-F; 2530 nM with human FcRn [14]; 269 nM with murine FcRn [15]. Moreover, in [2], the “Mean IC50 (Control)” value was 0.535 µg/mL. Further, the “Mean IC50 (Curve)” value in experiment [2] was determined as 0.453 µg/mL. In addition, the “Microneutralization IC50, IgG” value in [12] is 0.453 µg/ml and 3.02 nM; in [5], 0.453 µg/ml and 3.02 nM. For the same molecule, the “IC50” value in experiment [13] was 3.57 nM. For the same molecule, the “Microneutralization IC50” value in experiment [9] is 3.6 nM. In [9], the “RSV microneutralization, average IC50” value stood at 0.315 µg/mL.

B6: human IgG1 MEDI-493 (palivizumab) M252Y/S254T/T256E (antibody)
heavy: QVTLRESGPALVKPTQTLTLTCTFSGFSLSTSGMSVGWIRQPPGKALEWLADIWWDDKKDYNPSLKSRLTISKDTSKNQVVLKVTNMDPADTATYYCARSMITNWYFDVWGAGTTVTVSSASTKGPSVFPLAPSSKSTSGGTAALGCLVKDYFPEPVTVSWNSGALTSGVHTFPAVLQSSGLYSLSSVVTVPSSSLGTQTYICNVNHKPSNTKVDKRVEPKSCDKTHTCPPCPAPELLGGPSVFLFPPKPKDTLYITREPEVTCVVVDVSHEDPEVKFNWYVDGVEVHNAKTKPREEQYNSTYRVVSVLTVLHQDWLNGKEYKCKVSNKALPAPIEKTISKAKGQPREPQVYTLPPSREEMTKNQVSLTCLVKGFYPSDIAVEWESNGQPENNYKTTPPVLDSDGSFFLYSKLTVDKSRWQQGNVFSCSVMHEALHNHYTQKSLSLSPGK
light: B3 light with S24K, A25C, S26Q, S27L, R28S, V103L
notes: also called IgG1/M252Y/S254T/T256E
Regarding B6, the values for the Kd in the experiment with murine FcRn [16] and with murine FcRn [15] were 24 nM and 27 nM, respectively. In addition, the ΔΔG with murine FcRn [15] came to 1.4 kcal/mol.

The term Kd denotes the constant that tells how readily two partners part at equilibrium. What is called koff is the first-order rate constant of dissociation. The kon is a measure of how fast the partners come together. The IC50 is the midpoint of a concentration-inhibition curve.

The values above are taken from patent US20110158985A1 (published 2011).
